The values below are quoted from earlier work in patent publication US6896870B1, “Diagnostic probes and therapeutics targeting uPA and uPAR” (Angstrom Pharmaceuticals, Inc., priority 1999, dated 2005).

The target of this data set is uPAR (Homo sapiens, UniProt Q03405). The settings on record: read-out: IC50, prevention of uPA binding to uPAR.

Bridge positions count the residues as written; N and C are the ends. Ends that are not written are not given here.

Chain of uPAR (Q03405 23-305): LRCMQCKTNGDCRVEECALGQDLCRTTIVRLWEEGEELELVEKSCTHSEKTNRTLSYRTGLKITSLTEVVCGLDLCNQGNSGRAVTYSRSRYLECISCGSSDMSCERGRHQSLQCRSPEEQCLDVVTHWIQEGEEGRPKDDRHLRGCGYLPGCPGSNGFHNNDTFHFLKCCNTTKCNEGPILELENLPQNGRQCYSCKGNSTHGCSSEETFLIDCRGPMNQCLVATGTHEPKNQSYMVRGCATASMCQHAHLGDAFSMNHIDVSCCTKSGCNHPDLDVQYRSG

For “[Ala^19]uPA(12-32) [[Ala^19]uPA(12-32) open chain form] (DCLNGGTAVSNKYFSNIHWCN; UniProt P00749 32-52, looked up, variant C19A) [uPA GFD peptide with two cysteines, the third cysteine replaced by Ala]”, the IC50 (as a rule, the concentration needed to halve the response being measured) is 100 nM. As to “[Ala^19]uPA(12-32) [[Ala^19]uPA(12-32) oxidized cyclic form] (DCLNGGTAVSNKYFSNIHWCN; disulfide 2-20 (inferred); UniProt P00749 32-52, looked up, variant C19A) [same peptide cyclised by intrachain disulfide bond]”, the IC50 was 40 nM.
